Results taken from patent CN111196850A (BEIJING HUIZHI HEYUAN BIOTECHNOLOGY CO LTD, dated 2020).
Residue numbers refer to the chain shown, from its start.

B1: 嵌合抗体6K-3H (antibody, human IgG1, kappa)
heavy: not shown
light: DILLTQSPSSLSASLGGKVIITCKASQDINKYIAWYQHKPGKGLRLLIHYTSTLEPGIPSRFSGSGSGRDYSFSISNLEPEDIATYYCLHYDNLLTFGDGTKLELKRTVAAPSVFIFPPSDEQLKSGTASVVCLLNNFYPREAKVQWKVDNALQSGNSQESVTEQDSKDSTYSLSSTLTLSKADYEKHKLYACEVTHQGLSSPVTKSFNRGEC
B2: 鼠源TSLP单克隆抗体3A1H2B2E1(1K/1H) (antibody, mouse IgG1, kappa)
heavy: EVKLVESGGGLVQPGGSRKLSCAASGFTFSSFGMHWVRQAPEKGLEWVAYISSGSSIIHYADTVKGRFTISRDNPKNTLFLQMTSLRSEDTAMYYCAREPYGYDVYYFDYWGQGTTITVSSAKTTPPSVYPLAPGSAAQTNSMVTLGCLVKGYFPEPVTVTWNSGSLSSGVHTFPAVLESDLYTLSSSVTVPSSPRPSETVTCNVAHPASSTKVDKKIVPRDCGCKPCICTVPEVSSVFIFPPKPKDVLTITLTPKVTCVVVDISKDDPEVQFSWFVDDVEVHTAQTQPREEQFNSTFRSVSELPIMHQDWLNGKEFKCRVNSAAFPAPIEKTISKTKGRPKAPQVYTIPPPKEQMAKDKVSLTCMITDFFPEDITVEWQWNGQPAENYKNTQPIMNTNGSYFVYSKLNVQKSNWEAGNTFTCSVLHEGLHNHHTEKSLSHSPGK
light: DIVMTQSPASLAVSLGQRATISCKASQSIDYDGDSYMNWYQQKPGQPPKLLIYAASNLDSGIPARFSGSGSGTDFTLNIHPVEEEDAATYYCQQSNEDPYTFGGGTKLEIKRADAAPTVSIFPPSSEQLTSGGASVVCFLNNFYPKDINVKWKIDGSERQNGVLNSWTDQDSKDSTYSMSSTLTLTKDEYERHNSYTCEATHKTSTSPIVKSFNRNEC
notes: also called 鼠源单克隆抗体1K/1H
B3: 鼠源TSLP单克隆抗体7A9E3G10E5(6K/3H) (antibody, mouse IgG1, kappa)
heavy: EVKLVETGAELVRPGALVKLSCKTSGFNIKDYYMHWVKQRPEQGLEWIGWIDPENGNTIYDPKFQGKASITADTSSNTAYLHLSSLTSEDTAVYYCAREGDGNYLWFAYWGQGTLVTVSAAKTTPPSVYPLAPGSAAQTNSMVTLGCLVKGYFPEPVTVTWNSGSLSSGVHTFPAVLESDLYTLSSSVTVPSSPRPSETVTCNVAHPASSTKVDKKIVPRDCGCKPCICTVPEVSSVFIFPPKPKDVLTITLTPKVTCVVVDISKDDPEVQFSWFVDDVEVHTAQTQPREEQFNSTFRSVSELPIMHQDWLNGKEFKCRVNSAAFPAPIEKTISKTKGRPKAPQVYTIPPPKEQMAKDKVSLTCMITDFFPEDITVEWQWNGQPAENYKNTQPIMNTNGSYFVYSKLNVQKSNWEAGNTFTCSVLHEGLHNHHTEKSLSHSPGK
light: DILLTQSPSSLSASLGGKVIITCKASQDINKYIAWYQHKPGKGLRLLIHYTSTLEPGIPSRFSGSGSGRDYSFSISNLEPEDIATYYCLHYDNLLTFGDGTKLELKRADAAPTVSIFPPSSEQLTSGGASVVCFLNNFYPKDINVKWKIDGSERQNGVLNSWTDQDSKDSTYSMSSTLTLTKDEYERHNSYTCEATHKTSTSPIVKSFNRNEC
notes: also called 鼠源单克隆抗体6K/3H
B4: 人源化单克隆抗体1K3/1H2 (antibody, human IgG1, kappa, V domains shown)
VH: EVKLVESGGGLVQPGGSLKLSCAASGFTFSSFGMNWVRQAPGKGLEWVAYISSGSSIIYYADSVKGRFTISRDNPKNSLYLQMNSLRDEDTAVYYCAREPYGYDVYYFDYWGQGTTVTVSS
VL: DIVMTQSPASLAVSPGQRATISCKASQSIDYDGDSYMNWYQQKPGQPPKLLIYAASNLDTGIPARFSGSGSGTDFTLTISSVEEEDTATYYCQQSNEDPYTFGGGTKVEIKR
B5: 人源化单克隆抗体6K3/3H2 (antibody, human IgG1, kappa, V domains shown)
VH: QVQLVQSGAELKKPGASVKISCKASGFNIKDYYMHWVRQRPEQGLEWIGWIDPENGNTIYAQKFQGRATITADTSTDTAYMELSSLTSEDTAVYYCAREGDGNYLWFAYWGQGTLVTVSS
VL: DIQMTQSPSSLSASLGDKVTITCKASQDINKYIAWYQHKPGKAPKLLIHYTSTLEPGVPSRFSGSGSGTDFTFSISSLEPEDIATYYCLHYDNLLTFGGGTKLEIKR
notes: Humanized from 6K/3H; expressed in 293F cells
B6: 人源化单克隆抗体1K1/1H1 (antibody, human IgG1, kappa, V domains shown)
VH: B4 VH with K3Q, L18R, K19R, G42E, P75A, N84T, D88A, T116L
VL: B4 VL with P15L, S22T, T60S, I62V, S80H, S81P, E84P, T87F
notes: Humanized from 1K/1H; expressed in 293F cells
B7: 人源化单克隆抗体1K2/1H3 (antibody, human IgG1, kappa, V domains shown)
VH: B4 VH with K3Q, K19R, N35H, A49S, S63T, P75A, Y80F, D88S, T116L
VL: DIVLTQSPASLAVSLGQRATITCKASQSIDYDGDSYLNWYQQKPGQPPKLLIYAASNKDSGVPARFSGSGSGTDFTLTINPVEAEDFAVYYCQQSNEDPYTFGGGTKVEIKR
notes: as for B6
B8: 人源化单克隆抗体1K3/1H3 (antibody, human IgG1, kappa, V domains shown)
VH: B4 VH with K3Q, K19R, N35H, A49S, S63T, P75A, Y80F, D88S, T116L
VL: B4 VL
notes: as for B6
B9: 人源化单克隆抗体1K1/1H3 (antibody, human IgG1, kappa, V domains shown)
VH: B4 VH with K3Q, K19R, N35H, A49S, S63T, P75A, Y80F, D88S, T116L
VL: B7 VL with L4M, L37M, K58L, N80H, A84P, V89T
notes: as for B6
B10: 人源化单克隆抗体1K3/1H1 (antibody, human IgG1, kappa, V domains shown)
VH: B4 VH with K3Q, L18R, K19R, G42E, P75A, N84T, D88A, T116L
VL: B4 VL
notes: as for B6
B11: 人源化单克隆抗体1K2/1H1 (antibody, human IgG1, kappa, V domains shown)
VH: B4 VH with K3Q, L18R, K19R, G42E, P75A, N84T, D88A, T116L
VL: B7 VL
notes: as for B6
B12: 人源化单克隆抗体6K1/3H2 (antibody, human IgG1, kappa, V domains shown)
VH: B5 VH
VL: B5 VL with L15V, D17G, H38Q, A43G, T69R, E79Q, L103V
notes: as for B5
B13: 人源化单克隆抗体6K2/3H1 (antibody, human IgG1, kappa, V domains shown)
VH: B5 VH with Q3K, K12V, I20L, E42G, I59M, Q62P, T69S, D77N, E82Q, T87R
VL: DIQLTQSPSSLSASVGDKVIITCKASQDINKYIAWYQQKPGKALKLLIHYTSTLETGVPSRFSGSGSGTDYTFSISNLQPEDIATYYCLHYDNLLTFGGGTKVELKR
notes: as for B5
B14: 人源化单克隆抗体6K3/3H1 (antibody, human IgG1, kappa, V domains shown)
VH: B5 VH with Q3K, K12V, I20L, E42G, I59M, Q62P, T69S, D77N, E82Q, T87R
VL: B5 VL
notes: as for B5
B15: 人源化单克隆抗体6K3/3H3 (antibody, human IgG1, kappa, V domains shown)
VH: EVQLVESGAEVVKPGALVKVSCKASGFNIKDYYMHWVRQRPGQGLEWIGWIDPENGNTIYDQKFQGRVSITADTSTNTAYLELSSLTSEDTAVYYCAREGDGNYLWFAYWGQGTLVTVSS
VL: B5 VL
notes: as for B5
B16: 人源化单克隆抗体6K2/3H3 (antibody, human IgG1, kappa, V domains shown)
VH: B15 VH
VL: B13 VL
notes: as for B5
B17: 人源化单克隆抗体6K2/3H2 (antibody, human IgG1, kappa, V domains shown)
VH: B5 VH
VL: B13 VL
notes: as for B5
B18: 人源化单克隆抗体6K1/3H1 (antibody, human IgG1, kappa, V domains shown)
VH: B5 VH with Q3K, K12V, I20L, E42G, I59M, Q62P, T69S, D77N, E82Q, T87R
VL: B5 VL with L15V, D17G, H38Q, A43G, T69R, E79Q, L103V
notes: as for B5
B19: 人源化单克隆抗体6K1/3H3 (antibody, human IgG1, kappa, V domains shown)
VH: B15 VH
VL: B5 VL with L15V, D17G, H38Q, A43G, T69R, E79Q, L103V
notes: as for B5

target: rhTSLP-hFc (human); experiment: cell-based or functional assay

IC50, 抑制TSLP刺激的293F转染细胞STAT5-荧光素酶活性 [µg/mL]	Binder
0.26	B1

target: T1, 人TSLP (human, UniProt Q969D9 29-159); experiment: BLI (ForteBio Blitz)
T1 construct: also called hTSLP; 人胸腺基质淋巴细胞生成素

Kd [nM]	koff [s⁻¹]	kon [M⁻¹ s⁻¹]	Binder
1.75	0.000732	418000	B2
20.1	0.00506	252000	B3

target: rhTSLP-hFc (human); experiment: cell-based or functional assay; remark: another data set of the same source

IC50, 抑制TSLP刺激的293F转染细胞STAT5-荧光素酶活性 [µg/mL]	Binder
3.22	B4
0.182	B5

target: rhTSLP-hFc (human); experiment: competition ELISA: rhTSLP-hFc coated, antibody titrated against 2 μg/ml rhTSLPR-His, anti-His-HRP detection

IC50 [µg/mL]	Binder
0.609	B1

target: T2, rhTSLP-mFc融合蛋白 (human); experiment: ELISA: rhTSLP-mFc coated, goat anti-human IgG-HRP detection
T2 construct: Expressed in 293F cells and purified on protein A; also called 人重组TSLP蛋白

binding result	Binder
binds	B6
binds	B7
binds	B8
binds	B9
binds	B10
binds	B11
binds	B12
binds	B13
binds	B14
binds	B15
binds	B16
binds	B17
binds	B18
binds	B5
binds	B19

target: rhTSLP-hFc (human); experiment: competition ELISA: rhTSLP-hFc coated, antibody titrated against 2 μg/ml rhTSLPR-His, anti-His-HRP detection; remark: another data set of the same source

IC50 [µg/mL]	Binder
0.324	B2
0.428	B3
